Experimental data reported in patent US20120135022A1.

Legend:
[1] = molecular target: AAV1 capsid protein VP3 (AAV1); assay: cell-based or functional assay
[2] = molecular target: AAV2 capsid protein VP3 (AAV2) (UniProt P03135); assay: cell-based or functional assay
Sequence of UniProt P03135 (P03135 203-735 limits assumed): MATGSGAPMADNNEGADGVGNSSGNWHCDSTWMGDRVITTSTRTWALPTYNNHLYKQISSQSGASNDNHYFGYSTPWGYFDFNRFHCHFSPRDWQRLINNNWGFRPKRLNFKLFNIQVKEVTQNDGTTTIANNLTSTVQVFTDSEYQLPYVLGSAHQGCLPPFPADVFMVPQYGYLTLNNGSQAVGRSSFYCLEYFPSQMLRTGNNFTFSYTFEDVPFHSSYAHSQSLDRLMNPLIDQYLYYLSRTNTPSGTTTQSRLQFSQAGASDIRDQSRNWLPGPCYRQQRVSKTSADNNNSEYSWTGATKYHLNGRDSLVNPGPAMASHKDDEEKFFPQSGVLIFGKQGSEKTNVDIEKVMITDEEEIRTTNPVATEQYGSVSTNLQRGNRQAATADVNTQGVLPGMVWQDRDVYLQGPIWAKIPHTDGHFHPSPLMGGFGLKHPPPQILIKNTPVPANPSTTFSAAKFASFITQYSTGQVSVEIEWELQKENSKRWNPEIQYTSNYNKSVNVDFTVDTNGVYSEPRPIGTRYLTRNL

Substance: C-terminally truncated AAP (AAPtru) of AAV2 expressed from pVP2N-gfp (from UniProt D5SGZ8 2-177)
- Particle titer (AAV1 capsid ELISA) after trans-complementation [1]: 3.4e+10
- Particle titer (AAV2 capsid ELISA) after trans-complementation [2]: 2.1e+11
